Target: human FGFR1c together with human beta-Klotho (KLB), stably expressed on CHO Flp-In cells (human), P11362
Test: cell-based or functional assay

Sequence of human FGFR1c together with human beta-Klotho (KLB), stably expressed on CHO Flp-In cells (human), P11362 (P11362 22-822, chain 1 of 2): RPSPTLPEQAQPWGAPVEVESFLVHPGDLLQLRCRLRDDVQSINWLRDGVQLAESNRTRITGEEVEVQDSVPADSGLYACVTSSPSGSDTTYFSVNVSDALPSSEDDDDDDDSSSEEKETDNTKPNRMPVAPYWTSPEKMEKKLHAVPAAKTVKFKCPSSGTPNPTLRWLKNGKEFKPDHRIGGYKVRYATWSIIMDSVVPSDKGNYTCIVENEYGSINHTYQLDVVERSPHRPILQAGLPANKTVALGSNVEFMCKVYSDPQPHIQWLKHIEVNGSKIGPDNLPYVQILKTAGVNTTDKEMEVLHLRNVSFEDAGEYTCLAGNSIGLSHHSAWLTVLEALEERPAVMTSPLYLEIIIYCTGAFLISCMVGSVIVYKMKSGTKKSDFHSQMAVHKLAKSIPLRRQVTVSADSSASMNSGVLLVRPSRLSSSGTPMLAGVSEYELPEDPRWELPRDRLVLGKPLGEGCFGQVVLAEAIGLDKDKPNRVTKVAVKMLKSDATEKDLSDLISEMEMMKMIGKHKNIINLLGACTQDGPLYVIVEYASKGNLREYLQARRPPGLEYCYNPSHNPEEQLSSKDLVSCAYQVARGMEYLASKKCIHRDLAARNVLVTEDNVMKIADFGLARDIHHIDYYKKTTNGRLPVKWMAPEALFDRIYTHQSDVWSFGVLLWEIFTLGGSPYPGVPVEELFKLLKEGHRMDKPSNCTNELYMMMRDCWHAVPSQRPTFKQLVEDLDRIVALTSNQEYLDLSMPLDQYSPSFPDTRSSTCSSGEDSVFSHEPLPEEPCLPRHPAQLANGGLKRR
Sequence of human FGFR1c together with human beta-Klotho (KLB), stably expressed on CHO Flp-In cells (human), P11362 (Q86Z14 whole entry, chain 2 of 2, further chain): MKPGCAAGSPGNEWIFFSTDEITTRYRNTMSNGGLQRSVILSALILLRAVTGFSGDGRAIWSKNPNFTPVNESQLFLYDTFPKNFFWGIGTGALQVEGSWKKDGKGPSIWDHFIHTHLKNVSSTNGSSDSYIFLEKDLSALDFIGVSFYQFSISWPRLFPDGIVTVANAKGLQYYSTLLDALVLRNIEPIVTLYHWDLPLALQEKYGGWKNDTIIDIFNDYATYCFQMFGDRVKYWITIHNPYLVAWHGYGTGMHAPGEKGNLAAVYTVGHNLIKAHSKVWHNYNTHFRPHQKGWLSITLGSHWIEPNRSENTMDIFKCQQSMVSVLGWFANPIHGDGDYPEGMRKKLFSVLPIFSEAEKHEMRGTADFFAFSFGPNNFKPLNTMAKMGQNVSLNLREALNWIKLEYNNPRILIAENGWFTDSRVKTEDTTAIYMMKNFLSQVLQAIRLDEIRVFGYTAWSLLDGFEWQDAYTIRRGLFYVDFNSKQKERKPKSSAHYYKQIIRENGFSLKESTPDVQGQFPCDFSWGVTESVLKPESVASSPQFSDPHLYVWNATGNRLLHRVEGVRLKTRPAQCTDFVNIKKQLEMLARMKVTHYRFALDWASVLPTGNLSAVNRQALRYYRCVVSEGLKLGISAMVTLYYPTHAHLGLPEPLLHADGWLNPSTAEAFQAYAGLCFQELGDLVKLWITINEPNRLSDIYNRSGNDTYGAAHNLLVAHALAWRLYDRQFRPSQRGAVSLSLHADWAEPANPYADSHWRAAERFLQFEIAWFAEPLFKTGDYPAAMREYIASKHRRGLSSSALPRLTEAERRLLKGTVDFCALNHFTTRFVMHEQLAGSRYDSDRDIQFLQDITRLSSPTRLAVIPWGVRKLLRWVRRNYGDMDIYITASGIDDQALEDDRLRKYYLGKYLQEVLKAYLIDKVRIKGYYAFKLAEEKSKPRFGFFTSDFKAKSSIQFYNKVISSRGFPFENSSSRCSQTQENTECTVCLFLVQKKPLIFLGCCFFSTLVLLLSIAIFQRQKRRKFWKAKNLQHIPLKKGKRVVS

| Binder | pERK ICW EC50 [nmol/L] |
| --- | --- |
| FGF21 N149-D155 deleted and replaced by GSHSG (SEQ ID NO: 144), Q9NSA1 29-209 (ligand) GHPIPDSSPLLQFGGQVRQRYLYTDDAQQTEAHLEIREDGTVGGAADQSPESLLQLKALKPGVIQILGVKTSRFLCQRPDGALYGSLHFDPEACSFRELLLEDGYNVYQSEAHGLPLHLPGGSHSGPAPRGPARFLPLPGLPPAPPEPPGILAPQPPDVGSSDPLSMVGPSQGRSPSYAS | 0.1 |
| FGF21 N149-D155 deleted and replaced by GSGS (SEQ ID NO: 143), Q9NSA1 29-209 (ligand) GHPIPDSSPLLQFGGQVRQRYLYTDDAQQTEAHLEIREDGTVGGAADQSPESLLQLKALKPGVIQILGVKTSRFLCQRPDGALYGSLHFDPEACSFRELLLEDGYNVYQSEAHGLPLHLPGGSGSPAPRGPARFLPLPGLPPAPPEPPGILAPQPPDVGSSDPLSMVGPSQGRSPSYAS | 0.28 |
| FGF21 N149-D155 deleted and replaced by ATTS (SEQ ID NO: 145), Q9NSA1 29-209 (ligand) GHPIPDSSPLLQFGGQVRQRYLYTDDAQQTEAHLEIREDGTVGGAADQSPESLLQLKALKPGVIQILGVKTSRFLCQRPDGALYGSLHFDPEACSFRELLLEDGYNVYQSEAHGLPLHLPGATTSPAPRGPARFLPLPGLPPAPPEPPGILAPQPPDVGSSDPLSMVGPSQGRSPSYAS | 0.02 |

Now from value to binder:

| pERK ICW EC50 [nmol/L] | Binder |
| --- | --- |
| 0.39 | FGF21 R163H (SEQ ID NO: 141), Q9NSA1 29-209 (ligand) GHPIPDSSPLLQFGGQVRQRYLYTDDAQQTEAHLEIREDGTVGGAADQSPESLLQLKALKPGVIQILGVKTSRFLCQRPDGALYGSLHFDPEACSFRELLLEDGYNVYQSEAHGLPLHLPGNKSPHRDPAPRGPAHFLPLPGLPPAPPEPPGILAPQPPDVGSSDPLSMVGPSQGRSPSYAS |
| 0.84 | FGF21 P158H, R159H (SEQ ID NO: 142), Q9NSA1 29-209 (ligand) GHPIPDSSPLLQFGGQVRQRYLYTDDAQQTEAHLEIREDGTVGGAADQSPESLLQLKALKPGVIQILGVKTSRFLCQRPDGALYGSLHFDPEACSFRELLLEDGYNVYQSEAHGLPLHLPGNKSPHRDPAHHGPARFLPLPGLPPAPPEPPGILAPQPPDVGSSDPLSMVGPSQGRSPSYAS |
